The text below walks through data of US20220389379A1, “PRIMARY BREAST EPITHELIAL CELL CULTURE MEDIUM, CULTURE METHOD AND USE THEREOF” (PRECEDO PHARMACEUTICALS CO., LTD, priority 2019, published 2022).

The experiment has as its system primary breast tumor epithelial cells isolated from breast cancer tissues (HMFL-XN1, HMFL-XN3, HMFL-XN4, HMFL-XN6, HMFL-XN8). The experiment in a line: Optimization of primary breast epithelial cell culture medium: cell count after culture with medium additives. The class given is cell-based, human. Also on record: key: +: compared with the basis medium, the medium added with the additive(s) can promote the proliferation of primary breast tumor epithelial cells isolated from at least three cases of breast cancer tissues; −: the medium added with the additive(s) has the effect of inhibiting proliferation of primary breast tumor epithelial cells isolated from at least two cases of breast cancer tissues; ○: the medium added with this additive(s) has no significant effect on the proliferation of primary breast tumor epithelial cells isolated from at least three cases of breast cancer tissues. The settings on record: additive at the concentration given in Table 1 added to basis medium; cell count after 10 days of culture, compared with basis medium; five breast cancer samples. As for the experimental part:
Matrigel (registered trademark) (manufactured by BD Biosciences) was diluted at 1:100 in serum-free DMEM/F12 medium to prepare an extracellular matrix dilution, which was added to a 48-well culture plate with 200 μl/well to completely cover the bottom of the wells of the culture plate. The resultant was let stand for 1 hour in a 37° C. incubator. After 1 hour, the extracellular matrix dilution was removed to provide a Matrigel-coated plate.
First, a basis medium was prepared. To a commercial DMEM/F-12 medium, GlutaMAX-I (manufactured by Thermo Fisher SCIENTIFIC) was added at the specified concentration (1:100 dilution), human insulin (manufactured by Sigma) was added at a final concentration of 10 μg/ml, ROCK kinase inhibitor Y27632 (manufactured by Sigma) was added at a final concentration of 10 μM, and penicillin-streptomycin (manufactured by Thermo Fisher SCIENTIFIC) was added at a 1:100 dilution ratio, which provides the basis medium.
Next, different types of additives (as shown in Table 1) were added to the basis medium to prepare breast epithelial cell culture mediums containing different supplementary components, and the mediums with different components were added at a volume of 500 μl/well to 48-well plates which were coated with extracellular matrix gel (Matrigel). Breast tumor cells (HMFL-XN1) isolated from breast cancer tissue in step (1) of this Example were inoculated in a Matrigel-coated 48-well culture plate at a cell density of 1×10^4 cells/well, and equal numbers of freshly isolated breast tumor cells (HMFL-XN1) were cultured under different medium formulations at 37° C., under 5% CO2 concentration and 20% oxygen concentration. The medium was renewed every 4 days after the start of the culture. After 10 days of culture, cell counts were performed. As an experiment control, the basis medium without any additives was used. Breast tumor cells isolated from the remaining four breast cancer tissue samples were cultured and counted in the same manner as above.

B1: R-spondin1: R-spondin family protein, medium additive (protein, UniProt Q2MKA7 21-263, looked up)
R-spondin-1: SRGIKGKRQRRISAEGSQACAKGCELCSEVNGCLKCSPKLFILLERNDIRQVGVCLPSCPPGYFDARNPDMNKCIKCKIEHCEACFSHNFCTKCKEGLYLHKGRCYPACPEGSSAANGTMECSSPAQCEMSEWSPWGPCSKKQQLCGFRRGSEERTRRVLHAPVGDHAACSDTKETRRCTVRRVPCPEGQKRRKGGQGRRENANRNLARKESKEAGAGSRRRKGQQQQQQQGTVGPLTSAGPA
On to B1, for which the Degree of cell entry is “○”.

B2: R-spondin3: R-spondin family protein, medium additive (protein, UniProt Q9BXY4 22-272, looked up)
R-spondin-3: QNASRGRRQRRMHPNVSQGCQGGCATCSDYNGCLSCKPRLFFALERIGMKQIGVCLSSCPSGYYGTRYPDINKCTKCKADCDTCFNKNFCTKCKSGFYLHLGKCLDNCPEGLEANNHTMECVSIVHCEVSEWNPWSPCTKKGKTCGFKRGTETRVREIIQHPSAKGNLCPPTNETRKCTVQRKKCQKGERGKKGRERKRKKPNKGESKEAIPDSKSLESSKEIPEQRENKQQQKKRKVQDKQKSVSVSTVH
B2: the Degree of cell entry is “○”.

B3: Fibroblast growth factor 7: fibroblast growth factor 7 (FGF7), medium additive (protein, UniProt P21781 32-194, looked up)
Fibroblast growth factor 7: CNDMTPEQMATNVNCSSPERHTRSYDYMEGGDIRVRRLFCRTQWYLRIDKRGKVKGTQEMKNNYNIMEIRTVAVGIVAIKGVESEFYLAMNKEGKLYAKKECNEDCNFKELILENHYNTYASAKWTHNGGEMFVALNQKGIPVRGKKTKKEQKTAHFLPMAIT
With B3, the Degree of cell result is on record as “+”.

B4: Noggin: medium additive (R&D) (protein, UniProt Q13253 28-232, looked up)
Noggin: QHYLHIRPAPSDNLPLVDLIEHPDPIFDPKEKDLNETLLRSLLGGHYDPGFMATSPPEDRPGGGGGAAGGAEDLAELDQLLRQRPSGAMPSEIKGLEFSEGLAQGKKQRLSKKLRRKLQMWLWSQTFCPVLYAWNDLGSRFWPRYVKVGSCFSKRSCSVPEGMVCKPSKSVHLTVLRWRCQRRGGQRCGWIPIQYPIISECKCSC
As for B4, the Degree of cell entry is recorded as “○”.

B5: Interleukin 10: medium additive (R&D) (protein, UniProt P22301 19-178, looked up)
Interleukin-10: SPGQGTQSENSCTHFPGNLPNMLRDLRDAFSRVKTFFQMKDQLDNLLLKESLLEDFKGYLGCQALSEMIQFYLEEVMPQAENQDPDIKAHVNSLGENLKTLRLRLRRCHRFLPCENKSKAVEQVKNAFNKLQEKGIYKAMSEFDIFINYIEAYMTMKIRN
With B5, the Degree of cell result is on record as “○”.

B6: Amphiregulin: human amphiregulin (R&D Systems), medium additive (protein, UniProt P15514 101-187, looked up)
Amphiregulin: SVRVEQVVKPPQNKTESENTSDKPKRKKKGGKNGKNRRNRKKKNPCNAEFQNFCIHGECKYIEHLEAVTCKCQQEYFGERCGEKSMK
In the case of B6, the Degree of cell entry was “+”.

B7: Fibroblast growth factor 10: fibroblast growth factor 10 (FGF10), medium additive (protein, UniProt O15520 38-208, looked up)
Fibroblast growth factor 10: QALGQDMVSPEATNSSSSSFSSPSSAGRHVRSYNHLQGDVRWRKLFSFTKYFLKIEKNGKVSGTKKENCPYSILEITSVEIGVVAVKAINSNYYLAMNKKGKLYGSKEFNNDCKLKERIEENGYNTYASFNWQHNGRQMYVALNGKGAPRRGQKTRRKNTSAHFLPMVVHS
Regarding B7, the Degree of cell result is recorded as “+”.
